Sequences and labels used below:
B1: mAb11004 (antibody, V domains shown)
VH: QVQLVESGGGVVQPGRSLRLSCVASGFTFSIYGMDWVRQAPGKGLEWVAVISYDGSNKYYADSVKGRFTISRDNSKNTLYLQMNSLRPEDTAVYYCAKDREAAADAFDIWGQGTMVTVSS
VL: DIQMTQSPSSVSASVGDRVTITCRASQGISSWLAWYQQKPGKAPKLLIYAASSLHSGVPSRFSGSGSGTDFTLTISSLQPEDFATYYCQQANSFRLTFGGGTKVEIK
B2: mAb10998 (antibody, V domains shown)
VH: EVQLVESGGGLVHPGGSLRLSCAASGLTVSSNYMSWVRQAPGKGLEWVSVIYSGGSTYYADSVKGRFTISRHNSKNTLFLQMNSLRAEDTAVYYCARDRPITGTTLDVWGQGTTVTVSS
VL: DIQMTQSPSSLFASVGDRVTITCRASQSISSYLNWYQQKPGKAPKLLIYAASSLQSGVPSRFSGSGSGTDFTLTISSLQPEDFAFYYCQQTYSTPPITFGQGTRLEIK
B3: mAb11006 (antibody, V domains shown)
VH: EVQLVESGGGLVQPGGSLRLSCAASGFIVSRNYMSWVRQAPGKGLEWVSVIYSGGSTFYADSVKGRFTISRHNSKNTLYLQMNSLKAEDTAVYYCARELRGYFDYWGQGTLVTVSS
VL: DIQLTQSPSFLSASVGDRVTITCWASQGISSYLAWYQQKPGKAPKLLIYAASTLQSGVPSRFSGSGSGTEFTLTISSLQPEDFATYYCQLLNSYPYTFGQGTKLEIK
B4: mAb11008 (antibody, V domains shown)
VH: EVQLVESGGGLVQPGGSLRLSCAASGFTVSSNYMTWVRQAPGKGLEWVSVIYSGGSTFYADSVKGRFTISRHNSENTLYLQMNSLRAEDTAVYYCARDLAAAGTDYWGQGALVTVSS
VL: B3 VL with E81D, L90H, P95L

Substitutions are numbered along the chain they refer to.

Data on four molecules can be found in patent US20240043504A1.

In the first assay the target is T1, SARS-CoV-2 Spike Protein (RBD)(R319-F541).mmH (SARS-CoV-2). Kind of assay: Luminex bead binding, supernatant. To be noted: remark: other sources report otherwise.
Consider B1, for which the Binding signal (MFI) was 11300 MFI.

On to B2, for which the Binding signal (MFI) was determined as 3840 MFI.

B3: the Binding signal (MFI) stood at 4740 MFI.

B4: the Binding signal (MFI) was found to be 3180 MFI.

The next assay has as its target T1, SARS-CoV-2 Spike Protein …. Put plainly: Luminex bead binding, supernatant. To be noted: remark: other sources report otherwise. The source holds these as a separate data set.
For the molecule B1, the Binding signal (MFI) was determined as 3350 MFI.

As to B2, the Binding signal (MFI) was determined as 1850 MFI.

For B3, the Binding signal (MFI) was 5130 MFI.

Regarding B4, the Binding signal (MFI) worked out at 4050 MFI.
